Experimental data from the supplement of paper PMC5998384.

How the values were obtained:
[1] = tested on: HeLa Kyoto; assay: solubility in G1/S (NP-40 vs SDS abundance) (log2 ratio); higher = more soluble; conditions: cell cycle stage: G1/S
[2] = tested on: HeLa Kyoto; assay: solubility change mitosis vs G1/S (difference of NP-40 vs SDS log2 ratios) (log2 ratio difference); higher = more soluble in mitosis
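Wherever solubility change mitosis vs G1/S (difference of NP-40 vs SDS log2 ratios) is given: synchronized HeLa Kyoto cells (double thymidine block for G1/S, nocodazole release for mitosis), protein amounts in NP-40 versus SDS lysates quantified by mass spectrometry, three biological replicates.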
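Wherever solubility in G1/S (NP-40 vs SDS abundance) is given: HeLa Kyoto cells arrested at G1/S by double thymidine block, proteins quantified by TMT10plex mass spectrometry in mild NP-40 versus SDS extracts, three biological replicates.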

| Sequence | solubility in G1/S (log2) [1] | solubility change mitosis (log2) [2] |
| --- | --- | --- |
| MENELPVPHTSSSACATSSTSGASSSSGCNNSSSGGSGRPTGPQISVYSGIPDRQTVQVIQQALHRQPSTAAQYLQQMYAAQQQHLMLQTAALQQQHLSSAQLQSLAAVQQASLVSNRQGSTSGSNVSAQAPAQSSSINLAASPAAAQLLNRAQSVNSAAASGIAQQAVLLGNTSSPALTASQAQMYLRAQMLIFTPTATVATVQPELGTGSPARPPTPAQVQNLTLRTQQTPAAAASGPTPTQPVLPSLALKPTPGGSQPLPTPAQSRNTAQASPAGAKPGIADSVMEPHKKGDGNSSVPGSMEGRAGLSRTVPAVAAHPLIAPAYAQLQPHQLLPQPSSKHLQPQFVIQQQPQPQQQQPPPQQSRPVLQAEPHPQLASVSPSVALQPSSEAHAMPLGPVTPALPLQCPTANLHKPGGSQQCHPPTPDTGPQNGHPEGVPHTPQRRFQHTSAVILQLQPASPPQQCVPDDWKEVAPGEKSVPETRSGPSPHQQAIVTAMPGGLPVPTSPNIQPSPAHETGQGIVHALTDLSSPGMTSGNGNSASSIAGTAPQNGENKPPQAIVKPQILTHVIEGFVIQEGAEPFPVGRSSLLVGNLKKKYAQGFLPEKLPQQDHTTTTDSEMEEPYLQESKEEGAPLKLKCELCGRVDFAYKFKRSKRFCSMACAKRYNVGCTKRVGLFHSDRSKLQKAGAATHNRRRASKASLPPLTKDTKKQPTGTVPLSVTAALQLTHSQEDSSRCSDNSSYEEPLSPISASSSTSRRRQGQRDLELPDMHMRDLVGMGHHFLPSEPTKWNVEDVYEFIRSLPGCQEIAEEFRAQEIDGQALLLLKEDHLMSAMNIKLGPALKIYARISMLKDS [PHC2] | -0.368 | 0.555 |
| MEPLKVEKFATAKRGNGLRAVTPLRPGELLFRSDPLAYTVCKGSRGVVCDRCLLGKEKLMRCSQCRVAKYCSAKCQKKAWPDHKRECKCLKSCKPRYPPDSVRLLGRVVFKLMDGAPSESEKLYSFYDLESNINKLTEDKKEGLRQLVMTFQHFMREEIQDASQLPPAFDLFEAFAKVICNSFTICNAEMQEVGVGLYPSISLLNHSCDPNCSIVFNGPHLLLRAVRDIEVGEELTICYLDMLMTSEERRKQLRDQYCFECDCFRCQTQDKDADMLTGDEQVWKEVQESLKKIEELKAHWKWEQVLAMCQAIISSNSERLPDINIYQLKVLDCAMDACINLGLLEEALFYGTRTMEPYRIFFPGSHPVRGVQVMKVGKLQLHQGMFPQAMKNLRLAFDIMRVTHGREHSLIEDLILLLEECDANIRAS [SMYD3] | -0.0441 | -0.167 |
| MEPRAAAAGEPEPPAASSSFQARLWKNLQLGVGRSKGGGGGRAGGPERRTADTPSPSPPPPVGTGNAPARGSGAGSRWSGFKKRKQVLDRVFSSSQPNLCCSSPEPLEPGGAGRAEQGSTLRRRIREHLLPAVKGPAAASGAAGGTPPGGRSPDSAPSSSSASSSLSSSPQPPPRGDRARDEGARRQGPGAHLCHQKSSSLPGTACLEQLLEPPPPPAEPARSPAESRAPETGEEHGSSQKIINTAGTSNAEVPLADPGMYQLDITLRRGQSLAARDRGGTSDPYVKFKIGGKEVFRSKIIHKNLNPVWEEKACILVDHLREPLYIKVFDYDFGLQDDFMGSAFLDLTQLELNRPTDVTLTLKDPHYPDHDLGIILLSVILTPKEGESRDVTMLMRKSWKRSSKELSENEVVGSYFSVKSLFWRTCGRPALPVLGFCRAELQNPYCKNVQFQTQSLRLSDLHRKSHLWRGIVSITLIEGRDLKAMDSNGLSDPYVKFRLGHQKYKSKIMPKTLNPQWREQFDFHLYEERGGVIDITAWDKDAGKRDDFIGRCQVDLSALSREQTHKLELQLEEGEGHLVLLVTLTASATVSISDLSVNSLEDQKEREEILKRYSPLRIFHNLKDVGFLQVKVIRAEGLMAADVTGKSDPFCVVELNNDRLLTHTVYKNLNPEWNKVFTFNIKDIHSVLEVTVYDEDRDRSADFLGKVAIPLLSIQNGEQKAYVLKNKQLTGPTKGVIYLEIDVIFNAVKASLRTLIPKEQKYIEEENRLSKQLLLRNFIRMKRCVMVLVNAAYYVNSCFDWDSPPRSLAAFVLFLFVVWNFELYMIPLVLLLLLTWNYFLIISGKDNRQRDTVVEDMLEDEEEEDDKDDKDSEKKGFINKIYAIQEVCVSVQNILDEVASFGERIKNTFNWTVPFLSWLAIVALCVFTAILYCIPLRYIVLVWGINKFTKKLRSPYAIDNNELLDFLSRVPSDVQVVQYQELKPDPSHSPYKRKKNNLG [MCTP1] | 0.0529 | -0.196 |
